The source of these data is patent publication US6656716 (SUGEN, dated 2003).

The assay deals with T1, SULU1-coiled-coil2 (GST fusion of human SULU1 amino acids 752-898) (human, UniProt Q5R4F3 752-898 (Pongo abelii entry)).
T1 construct: Bait made as a C-terminal fusion to GST, expressed in E. coli and immobilised for T7 phage display selection; also called Construct 1; SULU1 Coiled-coil2 bait; not shown: glutathione S-transferase (GST) of the pGEX-4T vector
T1 sequence: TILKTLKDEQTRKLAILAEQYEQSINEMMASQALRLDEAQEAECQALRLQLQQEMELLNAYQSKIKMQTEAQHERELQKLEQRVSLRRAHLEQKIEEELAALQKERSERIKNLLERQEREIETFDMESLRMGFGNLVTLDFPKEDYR
Description: T7 phage display, H441 cDNA library, immobilised GST-fusion bait. As for the experimental part: Aliquots of refreshed libraries (10^10–10^12 pfu) supplemented with PanMix and a cocktail of […] inhibitors (Sigma P-8465) were incubated for 1–2 hrs at room temperature with the immobilized baits. Unbound phage was extensively washed (at least 4 times) with wash buffer.
Individual plaques were picked into 25 µL of 10 mM EDTA and the phage was disrupted by heating at 70° C. for 10 min. 2 µL of the disrupted phage were added to 50 µL PCR reaction mix. The insert DNA was amplified by 35 rounds of thermal cycling (94° C., 50 sec; 50° C., 1 min; 72° C., 1 min).

B1: GEK2 coiled-coil domain fragment (residues 677-820 of SEQ ID NO:26) displayed on T7 phage (other)
chain: KESMKQKMEEHTQKKQLLDRDFVAKQKEDLELAMKRLTTDNRREICDKERECLMKKQELLRDREAALWEMEEHQLQERHQLVKQQLKDQYFLQRHELLRKHEKEREQMQRYNQRMIEQLKVRQQQEKARLPKIQRSEGKTRMAM
notes: also called GEK2 CC1; GEK2 cc dom; not shown: T7 phage coat protein of the T7Select1-1b vector
For B1, the binding result was “binds”.
